Test results: patent US11419921B2, “Methods of treating neurological disorders” (EnClear Therapies, Inc., priority 2018, dated 2022)

Key:
[1] = tested on: (GR)10; assay: Cleavage of (GR)10 by commercial immobilized trypsin (agarose resin) in PBS; format: biochemical; settings: (GR)10 50 μM
Procedure: • Immobilized TPCK-trypsin on agarose resin; ThermoFisher Cat #20230 Lot #TA264999; Activity: 555 TAME units/mL of gel; the resin was washed with PBS • TPCK-trypsin; ThermoFisher Cat #20233 Lot #SB241185; Activity: 308 TAME units/mg of protein • NOTE: One TAME unit is equal to 1 μmole of TAME (p-toluenesulfonyl-L-arginine methyl ester in the presence of Ca2+) hydrolyzed/min at pH 8.2, 25° C. (One TAME unit=19.2 National Formulatory units=57.5 BAEE units
110 μL of 50 μM (GR)10 dipeptide repeats prepared in PBS was added to immobilized trypsin in 0.8 mL centrifuge columns and incubated for the prescribed time at room temperature with end-to-end mixing resin. Columns were spun down 1 minute at 1,000 Xg to recover digested GR dipeptides. Columns were washed with 110 μL of PBS to increase (GR)10 recovery. 100 μL of each samples were transferred to a new tube and 5 μL of 10% TFA followed by 300 μL of Dilution Solution were added. The reaction mixtures were analyzed by LC/MS to determine the concentration of GR repeats of different lengths.

[2] = 1 TAME unit = 1 μmole TAME hydrolyzed/min at pH 8.2, 25° C.; cited from earlier work
[3] = tested on: iCell® motor neurons; assay: Toxicity of (GR)10, untreated or protease-treated, on iCell motor neurons; format: cell-based; settings: (GR)10 concentrations of 25, 50 and 100 μM
Procedure: 200 μM of (GR)10 were diluted in human cerebrospinal fluid (CSF) and 400 μL were applied to each immobilized proteases. The reaction was incubated 5 minutes at room temperature with end-to-end mixing. Columns were spun down 1 minute at 1,000 Xg to recover digested GR dipeptides. Columns were washed with 12 resin volumes of PBS. The procedure was repeated with 60 minutes digestion time. 100 μL of each samples were transferred to a clean tube, flash-frozen and subsequently used for LC/MS quantification of GR repeats of different lengths. The remaining 300 μL of each samples were flash-frozen and used to assess neuron toxicity.
300 μL of CSF were applied to each immobilized proteases and incubated 60 minutes at room temperature with end-to-end mixing. Columns were spun down 1 minute at 1,000 Xg to recover treated CSF. Samples were flash-frozen and subsequently used to test neuron toxicity.
This example describes the reduced toxicity of (GR)10 on in vitro neuronal cells by digestion of (GR)10 with proteases.

B1: Immobilized trypsin: Immobilized TPCK-trypsin on agarose resin; ThermoFisher Cat #20230 (protein, UniProt P00760 24-246, looked up)
Serine protease 1: IVGGYTCGANTVPYQVSLNSGYHFCGGSLINSQWVVSAAHCYKSGIQVRLGEDNINVVEGNEQFISASKSIVHPSYNSNTLNNDIMLIKLKSAASLNSRVASISLPTSCASAGTQCLISGWGNTKSSGTSYPDVLKCLKAPILSDSSCKSAYPGQITSNMFCAGYLEGGKDSCQGDSGGPVVCSGKLQGIVSWGSGCAQKNKPGVYTKVCNYVSWIKQTIASN
modifications: TPCK-treated, immobilized on agarose resin
(GR)1 concentration ([1]; 0.625 TAME Units, 0 min): BLQ
(GR)2 concentration ([1]; 0.625 TAME Units, 0 min): BLQ
(GR)4 concentration ([1]; 0.625 TAME Units, 0 min): 0.1 µM
(GR)6 concentration ([1]; 0.625 TAME Units, 0 min): BLQ
(GR)8 concentration ([1]; 0.625 TAME Units, 0 min): 1.0 µM
(GR)10 concentration ([1]; 0.625 TAME Units, 0 min): 68.4 µM
(GR)1 concentration ([1]; 0.625 TAME Units, 5 min): 248.4 µM
(GR)2 concentration ([1]; 0.625 TAME Units, 5 min): 114.9 µM
(GR)4 concentration ([1]; 0.625 TAME Units, 5 min): 0.3 µM
(GR)6 concentration ([1]; 0.625 TAME Units, 5 min): 0.1 µM
(GR)8 concentration ([1]; 0.625 TAME Units, 5 min): BLQ
(GR)10 concentration ([1]; 0.625 TAME Units, 5 min): 3.1 µM
(GR)1 concentration ([1]; 0.625 TAME Units, 10 min): 307.0 µM
(GR)2 concentration ([1]; 0.625 TAME Units, 10 min): 89.6 µM
(GR)4 concentration ([1]; 0.625 TAME Units, 10 min): 0.2 µM
(GR)6 concentration ([1]; 0.625 TAME Units, 10 min): BLQ
(GR)8 concentration ([1]; 0.625 TAME Units, 10 min): BLQ
(GR)10 concentration ([1]; 0.625 TAME Units, 10 min): 2.1 µM
(GR)1 concentration ([1]; 0.625 TAME Units, 30 min): 411.7 µM
(GR)2 concentration ([1]; 0.625 TAME Units, 30 min): 11.8 µM
(GR)4 concentration ([1]; 0.625 TAME Units, 30 min): 0.1 µM
(GR)6 concentration ([1]; 0.625 TAME Units, 30 min): BLQ
(GR)8 concentration ([1]; 0.625 TAME Units, 30 min): BLQ
(GR)10 concentration ([1]; 0.625 TAME Units, 30 min): 0.6 µM
(GR)1 concentration ([1]; 0.625 TAME Units, 60 min): 465.4 µM
(GR)2 concentration ([1]; 0.625 TAME Units, 60 min): 5.6 µM
(GR)4 concentration ([1]; 0.625 TAME Units, 60 min): BLQ
(GR)6 concentration ([1]; 0.625 TAME Units, 60 min): BLQ
(GR)8 concentration ([1]; 0.625 TAME Units, 60 min): BLQ
(GR)10 concentration ([1]; 0.625 TAME Units, 60 min): 1.0 µM
(GR)1 concentration ([1]; 0.625 TAME Units, 120 min): 385.8 µM
(GR)2 concentration ([1]; 0.625 TAME Units, 120 min): 1.0 µM
(GR)4 concentration ([1]; 0.625 TAME Units, 120 min): BLQ
(GR)6 concentration ([1]; 0.625 TAME Units, 120 min): BLQ
(GR)8 concentration ([1]; 0.625 TAME Units, 120 min): BLQ
(GR)10 concentration ([1]; 0.625 TAME Units, 120 min): 0.1 µM
(GR)1 concentration ([1]; 6.25 TAME Units, 0 min): 0.2 µM
(GR)2 concentration ([1]; 6.25 TAME Units, 0 min): 0.2 µM
(GR)4 concentration ([1]; 6.25 TAME Units, 0 min): 0.1 µM
(GR)6 concentration ([1]; 6.25 TAME Units, 0 min): BLQ
(GR)8 concentration ([1]; 6.25 TAME Units, 0 min): BLQ
(GR)10 concentration ([1]; 6.25 TAME Units, 0 min): 32.7 µM
(GR)1 concentration ([1]; 6.25 TAME Units, 5 min): 391.0 µM
(GR)2 concentration ([1]; 6.25 TAME Units, 5 min): 1.2 µM
(GR)4 concentration ([1]; 6.25 TAME Units, 5 min): BLQ
(GR)6 concentration ([1]; 6.25 TAME Units, 5 min): BLQ
(GR)8 concentration ([1]; 6.25 TAME Units, 5 min): BLQ
(GR)10 concentration ([1]; 6.25 TAME Units, 5 min): 0.9 µM
(GR)1 concentration ([1]; 6.25 TAME Units, 10 min): 505.5 µM
(GR)2 concentration ([1]; 6.25 TAME Units, 10 min): 3.8 µM
(GR)4 concentration ([1]; 6.25 TAME Units, 10 min): 0.1 µM
(GR)6 concentration ([1]; 6.25 TAME Units, 10 min): BLQ
(GR)8 concentration ([1]; 6.25 TAME Units, 10 min): BLQ
(GR)10 concentration ([1]; 6.25 TAME Units, 10 min): 1.6 µM
(GR)1 concentration ([1]; 6.25 TAME Units, 30 min): 480.2 µM
(GR)2 concentration ([1]; 6.25 TAME Units, 30 min): 0.2 µM
(GR)4 concentration ([1]; 6.25 TAME Units, 30 min): BLQ
(GR)6 concentration ([1]; 6.25 TAME Units, 30 min): BLQ
(GR)8 concentration ([1]; 6.25 TAME Units, 30 min): BLQ
(GR)10 concentration ([1]; 6.25 TAME Units, 30 min): 0.9 µM
(GR)1 concentration ([1]; 6.25 TAME Units, 60 min): 409.6 µM
(GR)2 concentration ([1]; 6.25 TAME Units, 60 min): 0.1 µM
(GR)4 concentration ([1]; 6.25 TAME Units, 60 min): BLQ
(GR)6 concentration ([1]; 6.25 TAME Units, 60 min): BLQ
(GR)8 concentration ([1]; 6.25 TAME Units, 60 min): BLQ
(GR)10 concentration ([1]; 6.25 TAME Units, 60 min): 0.2 µM
(GR)1 concentration ([1]; 6.25 TAME Units, 120 min): 396.0 µM
(GR)2 concentration ([1]; 6.25 TAME Units, 120 min): 0.2 µM
(GR)4 concentration ([1]; 6.25 TAME Units, 120 min): BLQ
(GR)6 concentration ([1]; 6.25 TAME Units, 120 min): 0.1 µM
(GR)8 concentration ([1]; 6.25 TAME Units, 120 min): BLQ
(GR)10 concentration ([1]; 6.25 TAME Units, 120 min): 0.1 µM
Activity [2]: 555 TAME units/mL of gel

B2: resins having immobilized clostripain: clostripain immobilized on agarose resin (protein, UniProt P09870 51-181; P09870 191-526, looked up)
Clostripain light chain: NKNQKVTIMYYCDADNNLEGSLLNDIEEMKTGYKDSPNLNLIALVDRSPRYSSDEKVLGEDFSDTRLYKIEHNKANRLDGKNEFPEISTTSKYEANMGDPEVLKKFIDYCKSNYEADKYVLIMANHGGGAR
Clostripain heavy chain: AICWDDSNLDKNGEADCLYMGEISDHLTEKQSVDLLAFDACLMGTAEVAYQYRPGNGGFSADTLVASSPVVWGPGFKYDKIFDRIKAGGGTNNEDDLTLGGKEQNFDPATITNEQLGALFVEEQRDSTHANGRYDQHLSFYDLKKAESVKRAIDNLAVNLSNENKKSEIEKLRGSGIHTDLMHYFDEYSEGEWVEYPYFDVYDLCEKINKSENFSSKTKDLASNAMNKLNEMIVYSFGDPSNNFKEGKNGLSIFLPNGDKKYSTYYTSTKIPHWTMQSWYNSIDTVKYGLNPYGKLSWCKDGQDPEINKVGNWFELLDSWFDKTNDVTGGVNHYQW
modifications: immobilized on agarose resin
Effect of protease treatment of (GR)10 on (GR)10 toxicity [3]: abrogation of (GR)10 toxicity
